Assay results taken from US20080044436A1, “Method for Screening and Compositions for Treating Cancers” (priority 2004, published 2008).

Legend:
Type in all cases: cell-based, human
T47-D cells = assay: T47-D cell proliferation (cell counts) with control or TReP-132 siRNA and progesterone; conditions: T47-D transfected control cells, 30 nM progesterone, 4 to 6 days of treatment
Protocol: FIG. 3: Induction of TReP-132 by progesterone and suppression of progesterone inhibition of T47-D cell proliferation following TReP-132 knockdown by using small interfering RNA (“siRNA”). (T47-D cells were treated for the indicated times with 30 nM progesterone). Experiments were carried out in triplicate, and values represent the mean ±SD of a representative experiment.
FIG. 3B: Cells transfected with control siRNA or TReP-132 siRNA (400 ng) at 0 and 3 days were recovered at days 2, 4 or 6 and counted. (ns: not significant −*, p<0.05; **, […]; ***, p<0.001).
The sense 5′-[…]-3′ and the antisense 5′-[…]-3′ oligonucleotides were synthesized (Eurogentec) and used to generate double-stranded siRNA specific for TReP-132 (21 bp corresponding to amino acids 861-881 […] the initiation codon of the human TReP-132 gene). […] Transfection was carried out by using the GeneSilencer reagent (Gene Therapy Systems, San Diego, USA) as directed by the manufacturer. Transfection efficiency was verified by FACS analysis (Fluorescence-Activated Cell Sorting) (see below). […] Statistical analyses were carried out with the nonparametric Kruskal-Wallis test.

HeLa cells [1] = assay: Cell cycle analysis by flow cytometry after TReP-132 induction; conditions: HTO-GFP/TReP-132 cells, from 48 hours after doxycycline removal
Excerpt: HeLa Tet-off cells expressing the tTA transactivator under the control of tetracycline or doxycycline (Dox) (Clontech Laboratories, Palo Alto, Calif.) were stably transfected with the pBI-EGFP-TReP-132 vector or the pBI-EGFP control vector. In order to select stably transfected cells, the pcDNA6 plasmid (Invitrogen, Ontario, CA) containing the blasticidin resistance gene was cotransfected at a ratio of 1:50. For these transfections, the cells were first seeded in 6-well plates at an initial density of 1×10^5 cells per well, incubated for 24 hours, then transfected with ExGen 500 (MBI Fermentas, Flamborough, Ontario, CA) at a ratio of 5 μl of ExGen 500 for a total of 1 μg of plasmid such as described hereinabove in the section “Colony formation assays”. 48 hours post-transfection, cells were selected for 2 weeks with blasticidin (Sigma-Aldrich CA Ltd.). Clearly visible colonies were then were picked and subcloned on 12-well plates to enable growth. […]
To evaluate the percentage of cells in the G0/G1, S, or G2/M phase, flow cytometry profiles were determined on propidium iodide stained DNA from said cells. […] The percentage of cells in the G1, S, and G2/M phase was quantified with Multicycle AV software (Phoenix Flow System, San Diego, Calif.) (28).

HeLa cells [2] = assay: Doubling time of reseeded HeLa colonies expressing exogenous TReP-132; conditions: HeLa cells expressing TReP-132; control pcDNA3 cells 18 hours
Protocol: HeLa cells were seeded in 12-well plates at an initial density of 100,000 cells per well, incubated for 24 hours, then transfected with each of the following plasmids: pcDNA3, pcDNA3-Luc, pcDNA3-SF-1, or pcDNA3-TReP-132, each containing the neomycin resistance gene. The transfections were carried out in triplicate with ExGen 500 (MBI Fermentas, Flamborough, Ontario, Canada) at a ratio of 5 μl of ExGen 500 per 1 μg of plasmid. After 12 hours of transfection, the medium was changed and the cells were incubated for an additional 8 hours. The cells were then trypsinized and transferred to a 100 mm petri dish. After 48 hours, the medium was supplemented with 400 μg/ml of the selection agent G418 (Sigma-Aldrich CA Ltd.). Distinct colonies could be detected after two weeks of selection with G418. The cells were then rinsed with PBS and fixed with a mixture of 10% acetic acid/10% methanol for 15 min, then colored with crystal violet (Sigma-Aldrich CA Ltd.).
The cell proliferation rate was determined by the cellular DNA content using the fluorochorome DABA ([…]). […] Fluorescence was measured on a Perkin-Elmer LS-2B Filter Fluorimeter at an excitation wavelength of 400 nm and an emission wavelength of 508 nm. The DNA content was calculated from a standard curve of known quantities of salmon sperm DNA.

p21^CIP1/WAF1 gene = assay: RNase protection assay of CDKI transcription in HeLa cells, p21; conditions: HeLa Tet-off cells, doxycycline removed
Protocol: All radiolabelled probes specific for the p130, Rb, p107, p53, p57, p27, p21, p19, p18, p14/p15, L32, and GAPDH genes were labelled with [α-^32P]UTP-ribonucleotide (PerkinElmer Life Sciences, Woodbridge, Ontario, CA) in the conditions specified in the “hCC-2 Muti-Probe Template Set” kit (Pharmingen, Mississauga, Ontario, CA). Ribonuclease protection experiments were carried out with the Ribonuclease III Protection kit (Ambion, Austin, Tex.). Ten micrograms of HeLa cell RNA were hybridized with the radiolabelled probe mixture at 56° C. and then digested for 45 min at 30° C. in RNase A/RNase T1 solution diluted 1:1000 in digestion buffer. The samples were separated on a polyacrylamide-6% urea gel.

For `CC(=O)[C@H]1CC[C@H]2[C@@H]3CCC4=CC(=O)CC[C@]4(C)[C@H]3CC[C@]12C` [progesterone, reference compound], the cell proliferation (T47-D cells) was “inhibited cell proliferation”.

B1: TReP-132: Transcriptional Regulating Protein of 132 kDa, polypeptide comprising SEQ ID NO: 2; here expressed in cells from vectors (protein)
chain: MGDQQLYKTNHVAHGSENLFYQQPPLGVHSGLNHNYGNAVTGGGMDAPQASPISPHFPQDTRDGLGLPVGSKNLGQMDTSRQGGWGSHAGPGNHVQLRGNLANSNMMWGAPAQAEPTDGYQYTYSQASEIRTQKLTSGVLHKLDSFTQVFANQNLRIQVNNMAQVLHTQSAVMDGAPDSALRQLLSQKPMEPPAPAIPSRYQQVPQQPHPGFTGGLSKPALQVGQHPTQGHLYYDYQQPLAQVPVQGGQPLQAPQMLSQHMQQMQQHQYYPPQQQQQAGQQRISMQEIQTQPQQIRPSQPQPPPQQQQPQQLQLQQRQGSMQIPQYYQPQPMMQHLQEQQQQQMHLQPPSYHRDPHQYTPEQAHTVQLIPLGSMSQYYYQEPQQPYSHPLYQQSHLSQHQQREDSQLKTYSSDRQAQAMLSSHGDLGPPDTGMGDPASSDLTRVSSTLPHRPLLSPSGIHLNNMGPQHQQLSPSAMWPQMHLPDGRAQPGSPESSGQPKGAFGEQFDAKNKLTCSICLKEFKNLPALNGHMRSHGGMRASPNLKQEEGEKVLPPQPQPPLPPPPPPPPPPQLPPEAESLTPMVMPVSVPVKLLPPKPSSQGFTNSTVAAPSARDKPASSMSDDEMPVLEIPRKHQPSVPKAEEPLKTVQEKKKFRHRPEPLFIPPPPSYNPNPAASYSGATLYQSQLRSPRVLGDHLLLDPTHELPPYTPPPMLSPVRQGSGLFSNVLISGHGPGAHPQLPLTPLTPTPRVLLCRSNSIDGSNVTVTPGPGEQTVDVEPRINIGLRFQAEIPELQDISALAQDTHKATLVWKPWPELENHDLQQRVENLLNLCCSSALPGGGTNSEFALHSLFEAKGDVMVALEMLLLRKPVRLKCHPLANYHYAGSDKWTSLERKLFNKALATYSKDFIFVQKMVKSKTVAQCVEYYYTWKKIMRLGRKHRTRLAEIIDDCVTSEEEEELEEEEEEDPEEDRKSTKEEESEVPKSPEPPPVPVLAPTEGPPLQALGQPSGSFICEMPNCGAVFSSRQALNGHARIHGGTNQVTKARGAIPSGKQKPGGTQSGYCSVKSSPSHSTTSGETDPTTIFPCKECGKVFFKIKSRNAHMKTHRQQEEQQRQKAQKAAFAAEMAATIERTTGPVGAPGLLPLDQLSLIKPIKDVDILDDDVVQQLGGVMEEAEVVDTDLLLDDQDSVLLQGDAEL
For B1, the cell cycle effect (HeLa cells [1]) was “arrested cells in the G1 phase”, the doubling time (HeLa cells [2]) was 30 h and the p21 gene transcription (p21^CIP1/WAF1 gene) was “induction”.
